The supplement of paper PMC10724198
± gives the standard deviation of the averaged measurements.
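Also: PSI is a weighted mean of sequencing reads over stability bins, variants kept only with over 10 reads, mCherry proximal and sfGFP distal, peptide attached via GGGS linker.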

What follows are sequences tested on Saccharomyces cerevisiae (assay: protein stability index of tFT-peptide fusion (C-terminal peptide) (PSI (0-1 scale)); higher = more stable (slower turnover)). Conditions: genetic background: wild type; temperature: 30 C.
With FAIFSGMSFGVY the protein stability index was 0.693 ± 0.05. TSARQGFFASLV gave a protein stability index of 0.646 ± 0.049. Sequence SDQEIKKSQCGG has a protein stability index of 0.659 ± 0.047. Sequence LPAWSYPSGWLL has a protein stability index of 0.718 ± 0.044. Work on KGANISDCLSIF yielded a protein stability index of 0.616 ± 0.018. NFDNGAGLNRGG gave a protein stability index of 0.6733 ± 0.0059. RRVGPVSPNWIS gave a protein stability index of 0.6499 ± 0.0042. HFGSSLPPFCCI gave a protein stability index of 0.76 ± 0.021. Work on PRPPALPFPLLA yielded a protein stability index of 0.5329 ± 0.0036. For DRRQLSVVARRT, the protein stability index was 0.648 ± 0.027. LGKVAGLGAGRP showed a protein stability index of 0.719 ± 0.034. Sequence PFFLSFPPSALL has a protein stability index of 0.741 ± 0.021. SSVFRSYTSVLS was tested, and the protein stability index was 0.686 ± 0.076. For PPLPPSPRLLPP, the protein stability index was 0.635 ± 0.056. HSLRRLSLYVSL gave a protein stability index of 0.612 ± 0.086. TLPRSLGPSSPA showed a protein stability index of 0.753 ± 0.076. Work on PPSPRPPRPLFA yielded a protein stability index of 0.664 ± 0.021. VEHVRIGGGGKS showed a protein stability index of 0.7 ± 0.013. In the case of VQRPALPPRHPP, the protein stability index is reported as 0.612 ± 0.005. In the case of VTPLPPPRTFLP, the protein stability index is reported as 0.67 ± 0.07. SESLLSQPIVLV gave a protein stability index of 0.647 ± 0.017. VFALPPAPPPSP gave a protein stability index of 0.722 ± 0.062. SILPRWEFKSLS showed a protein stability index of 0.802 ± 0.06. In the case of RQPRPPDDIASV, the protein stability index is reported as 0.678 ± 0.032. For ISKEIKKRLNRY, the protein stability index was 0.63 ± 0.055. In the case of PPSPAPPPASPP, the protein stability index is reported as 0.651 ± 0.035. LRAWWTPRRGRW gave a protein stability index of 0.769 ± 0.052. With VGSWSVICGGVL the protein stability index was 0.6929 ± 0.0061. With LQTLDVFTTMKL the protein stability index was 0.58 ± 0.045. Work on LGGGGPSVREGE yielded a protein stability index of 0.679 ± 0.05. For GSIRFVIFLTRL, the protein stability index was 0.587 ± 0.12. In the case of RLSMCLDDPPRL, the protein stability index is reported as 0.717 ± 0.025. With YYLCHIEEFLSS the protein stability index was 0.622 ± 0.072. In the case of WDVVECCLWRYR, the protein stability index is reported as 0.681 ± 0.034. For MPTSYDGCDRGH, the protein stability index was 0.713 ± 0.011. RSPPPSLTPSPL gave a protein stability index of 0.68193 ± 0.00027. GPGFGEFVWSLW showed a protein stability index of 0.692 ± 0.044. KTRNDQPQKFHN showed a protein stability index of 0.688 ± 0.034. For ACRVAVGRLFGS, the protein stability index was 0.717 ± 0.037. LGVMLLEGWRVM showed a protein stability index of 0.656 ± 0.018. For SGDCRLPLPRSP, the protein stability index was 0.711 ± 0.022. Sequence HLPPPPTPFPLT has a protein stability index of 0.757 ± 0.16. HWPSPLSPAVPG showed a protein stability index of 0.804 ± 0.084. PPRLHPAPPPRT showed a protein stability index of 0.747 ± 0.033. Work on GMAKGWHCESSS yielded a protein stability index of 0.716 ± 0.041. DLTQHRQHKPQK was tested, and the protein stability index was 0.735 ± 0.043. For GRLPAYIHATRA, the protein stability index was 0.63128 ± 0.00047. KNNNREKLRQSM gave a protein stability index of 0.623 ± 0.056. For RGWVGGGSSAWS, the protein stability index was 0.651 ± 0.024. PPPPPPSPHPPL showed a protein stability index of 0.709 ± 0.01. Sequence DIERRMEVINNG has a protein stability index of 0.696 ± 0.032. Sequence EGGRGGGRGVVG has a protein stability index of 0.67 ± 0.027. For KEFFGGSTDFRV, the protein stability index was 0.729 ± 0.18. In the case of SLDALVDFWSRG, the protein stability index is reported as 0.737 ± 0.066. HSYLSPPLLASP showed a protein stability index of 0.715 ± 0.069. RAAREASQDIPN showed a protein stability index of 0.753 ± 0.12. For KSGVWLWVGGGG, the protein stability index was 0.714 ± 0.033. Work on AVVRTVVCLNVL yielded a protein stability index of 0.573 ± 0.013. GACFLGGRLCGR was tested, and the protein stability index was 0.686 ± 0.024. For PSPLPPPAPHPL, the protein stability index was 0.752 ± 0.26. With EKKKKTKKEKKK the protein stability index was 0.677 ± 0.0082. GVGGRGVGAGGG showed a protein stability index of 0.662 ± 0.055. LPPPAPSPAPPH showed a protein stability index of 0.593 ± 0.12. In the case of ISLRAPVRPECV, the protein stability index is reported as 0.709 ± 0.031. In the case of SENEGEGIYVRM, the protein stability index is reported as 0.672 ± 0.065. With AGAWLVDAAVGV the protein stability index was 0.612 ± 0.017. With SSRAPSLPPPPP the protein stability index was 0.674 ± 0.025. In the case of LRSGSLVSLPPL, the protein stability index is reported as 0.747 ± 0.1. DKVIIRKLRTSK gave a protein stability index of 0.6863 ± 0.0051. RSCVGGISVLVL was tested, and the protein stability index was 0.466 ± 0.085. Sequence PPLPFARAPHCP has a protein stability index of 0.732 ± 0.059. VRSILEGRRGEK was tested, and the protein stability index was 0.709 ± 0.032. Work on PLIDRKIKKAIQ yielded a protein stability index of 0.705 ± 0.069. CCCGSGFFLLKV gave a protein stability index of 0.525 ± 0.021. With YGNSFLVRPPGD the protein stability index was 0.712 ± 0.05. PAFVPPFTPATP was tested, and the protein stability index was 0.76 ± 0.033. Sequence SYTAPPLLRSSY has a protein stability index of 0.679 ± 0.015. Work on ADSGAHTISTVC yielded a protein stability index of 0.663 ± 0.01. Work on RSSSPLPLLSLL yielded a protein stability index of 0.753 ± 0.053. KIKDKKNKQKKH showed a protein stability index of 0.709 ± 0.034. With KNIKENIGDKNK the protein stability index was 0.646 ± 0.06. GMLGVIGGKVGR showed a protein stability index of 0.699 ± 0.052. Work on VLFCQLFCDFFG yielded a protein stability index of 0.631 ± 0.084. In the case of TLLCGDASVLTA, the protein stability index is reported as 0.658 ± 0.071. With PPPPPPPPPLFP the protein stability index was 0.703 ± 0.022. Work on GQPLAEKFGEFV yielded a protein stability index of 0.623 ± 0.088. With LYDCQHTFILSR the protein stability index was 0.643 ± 0.047. In the case of WGGASIGMGFGA, the protein stability index is reported as 0.743 ± 0.036. In the case of VLCGALRIVGHK, the protein stability index is reported as 0.603 ± 0.017. DYVVHSGTYGPK was tested, and the protein stability index was 0.687 ± 0.021. Work on KGETSYTGIAVG yielded a protein stability index of 0.667 ± 0.085. Work on ERKKKKKERARG yielded a protein stability index of 0.767 ± 0.1. In the case of GFPPSPPPPSPL, the protein stability index is reported as 0.741 ± 0.085. With RLPPPLPQAPPT the protein stability index was 0.712 ± 0.023. Sequence SGHGGAARRPAP has a protein stability index of 0.733 ± 0.08. For GVPPFSPPPPPH, the protein stability index was 0.683 ± 0.017. In the case of PPPHPPPPASPP, the protein stability index is reported as 0.653 ± 0.034. For VGAGGSLPLNKV, the protein stability index was 0.6928 ± 0.0062. SFCYFSCPSLIM gave a protein stability index of 0.718 ± 0.11. For DSVRGNDSGSGL, the protein stability index was 0.7245 ± 0.0064. VVVGGVWIRRVW showed a protein stability index of 0.654 ± 0.052.
